Patent publication US20230213519A1 (4TEEN4 PHARMACEUTICALS, published 2023)
No end group written: not given here. *: point of attachment. Biotin = O=C1N[C@H]2[C@H](CS[C@H]2CCCCC(=O)*)N1

Tests used:
[1] = biological target: T1, epitope mapping peptide #7 (human); test: labelled AK1967 on biotinylated peptide captured on avidin plate, chemiluminescence
T1 peptide: Biotin-AFNFDQETVINPET
Description: (§1) The plates were filled with 200 μl of labelled and diluted detection antibody (tracer) and incubated for 4 h at room temperature. Unbound tracer was removed by washing 4 times with 350 μl washing solution (20 mM PBS, pH 7.4, 0.1% Triton X-100). Well-bound chemiluminescence was measured by using the Centro LB 960 luminometer (Berthold Technologies GmbH & Co. KG).

[2] = biological target: T2, epitope mapping peptide #8 (human); test: as above
T2 peptide: Biotin-AFNFDQETVINPE
Description: as §1

[3] = biological target: T3, epitope mapping peptide #9 (human); test: as above
T3 peptide: Biotin-AFNFDQETVINP
Description: as §1

[4] = biological target: T4, epitope mapping peptide #10 (human); test: as above
T4 construct: also called bio-AFNFDQETVIN
T4 peptide: Biotin-AFNFDQETVIN
Description: as §1

[5] = biological target: T5, epitope mapping peptide #11 (human, not fully specified (C-terminus)); test: as above
T5 peptide: ETGEQIQSWYK(Biotin)
Description: as §1

[6] = biological target: T6, epitope mapping peptide #12 (human, not fully specified (C-terminus)); test: as above
T6 peptide: PETGEQIQSWYK(Biotin)
Description: as §1

[7] = biological target: T7, epitope mapping peptide #13 (human, not fully specified (C-terminus)); test: as above
T7 peptide: NPETGEQIQSWYK(Biotin)
Description: as §1

[8] = biological target: T8, epitope mapping peptide #1 (human, biotinylated at the N- or C-terminus (which end is in the drawing only)); test: labelled AK1967 on biotinylated peptide #1 captured on avidin plate, chemiluminescence
T8 peptide: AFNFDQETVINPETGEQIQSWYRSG
Description: as §1

[9] = biological target: T9, epitope mapping peptide #2 (human); test: labelled AK1967 on biotinylated peptide #2 captured on avidin plate, chemiluminescence
T9 peptide: Biotin-AFNFDQETVINPETGEQIQ
Description: as §1

[10] = biological target: T10, epitope mapping peptide #3 (human); test: labelled AK1967 on biotinylated peptide #3 captured on avidin plate, chemiluminescence
T10 peptide: Biotin-AFNFDQETVINPETGEQI
Description: as §1

[11] = biological target: T11, epitope mapping peptide #4 (human); test: labelled AK1967 on biotinylated peptide #4 captured on avidin plate, chemiluminescence
T11 peptide: Biotin-AFNFDQETVINPETGEQ
Description: as §1

[12] = biological target: T12, epitope mapping peptide #5 (human); test: labelled AK1967 on biotinylated peptide #5 captured on avidin plate, chemiluminescence
T12 peptide: Biotin-AFNFDQETVINPETGE
Description: as §1

[13] = biological target: T13, epitope mapping peptide #6 (human); test: labelled AK1967 on biotinylated peptide #6 captured on avidin plate, chemiluminescence
T13 peptide: Biotin-AFNFDQETVINPETG
Description: as §1

[14] = biological target: T14, epitope mapping peptide #14 (human, not fully specified (C-terminus)); test: labelled AK1967 on biotinylated peptide #14 captured on avidin plate, chemiluminescence
T14 peptide: INPETGEQIQSWYK(Biotin)
Description: as §1

[15] = biological target: T15, epitope mapping peptide #15 (human, not fully specified (C-terminus)); test: labelled AK1967 on biotinylated peptide #15 captured on avidin plate, chemiluminescence
T15 peptide: VINPETGEQIQSWYK(Biotin)
Description: as §1

[16] = biological target: T16, epitope mapping peptide #16 (human, not fully specified (C-terminus)); test: labelled AK1967 on biotinylated peptide #16 captured on avidin plate, chemiluminescence
T16 peptide: TVINPETGEQIQSWYK(Biotin)
Description: as §1

[17] = biological target: T17, epitope mapping peptide #17 (human, not fully specified (C-terminus)); test: labelled AK1967 on biotinylated peptide #17 captured on avidin plate, chemiluminescence
T17 peptide: ETVINPETGEQIQSWYK(Biotin)
Description: as §1

B1: monoclonal anti-DPP3 antibody AK1967 (clone 1967 of SEQ ID No.: 2) (antibody, V domains shown)
VH: QVTLKESGPGILQPSQTLSLTCSFSGFSLSTSGMSVGWIRQPSGKGLEWLAHIWWNDNKSYNPALKSRLTISRDTSNNQVFLKIASVVTADTGTYFCARNYSYDYWGQGTTLTVSS
VL: DVVVTQTPLSLSVSLGDPASISCRSSRSLVHSIGSTYLHWYLQKPGQSPKLLIYKVSNRFSGVPDRFSGSGSGTDFTLKISRVEAEDLGVYFCSQSTHVPWTFGGGTKLEIK
notes: Murine monoclonal; A human IgG1 kappa backbone was used for chimerization and humanization; The Octet run captured 'AK1967' on anti-human Fc biosensors, so the format in that run is uncertain; also called Procizumab; PCZ
- binding result [1]: no binding
- binding result [2]: no binding
- binding result [3]: no binding
- binding result [4]: no binding
- binding result [5]: no binding
- binding result [6]: no binding
- binding result [7]: no binding
- binding result [8]: binds
- binding result [9]: binds
- binding result [10]: binds
- binding result [11]: binds
- binding result [12]: binds
- binding result [13]: binds
- binding result [14]: binds
- binding result [15]: binds
- binding result [16]: binds
- binding result [17]: binds
